# Results: the supplement of paper PMC9112550, “Optimization of the antimicrobial peptide Bac7 by deep mutational scanning” (BMC Biology, 2022)
# System: Escherichia coli TOP10
# Assay: shrunken log2 fold change of peptide-encoding DNA abundance (4.5 h post-induction vs induction); higher = less antimicrobial activity (less host growth inhibition)
# Conditions: time post-induction: 4.5 h; library: site-saturation at positions 5, 18, 19, 20
# 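Note: peptides expressed intracellularly from a pBAD plasmid library in pooled LB shake-flask culture, induced with 0.3% L-arabinose, DNA abundance read by NGS, three biological replicates, DESeq2 with apeglm shrinkage.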
row,Sequence,shrunken log2 fold change
1,RRIRYRPPRLPRPRPRPLENPRP,-0.0143
2,RRIRSRPPRLPRPRPRPDGRPRP,0.0253
3,RRIRGRPPRLPRPRPRPSVEPRP,0.651
4,RRIRVRPPRLPRPRPRPFPAPRP,-0.121
5,RRIRVRPPRLPRPRPRPLPHPRP,0.0915
6,RRIRDRPPRLPRPRPRPDTLPRP,0.125
7,RRIRPRPPRLPRPRPRPTQEPRP,0.617
8,RRIRFRPPRLPRPRPRPPPIPRP,1.02
9,RRIRIRPPRLPRPRPRPNYIPRP,-1.29
10,RRIRFRPPRLPRPRPRPFKMPRP,1.77
11,RRIRHRPPRLPRPRPRPYVKPRP,-0.509
12,RRIRARPPRLPRPRPRPCQDPRP,-0.163
13,RRIRPRPPRLPRPRPRPHYAPRP,-0.15
14,RRIRHRPPRLPRPRPRPDFAPRP,-1.07
15,RRIRRRPPRLPRPRPRPFAAPRP,0.98
16,RRIRKRPPRLPRPRPRPFHFPRP,-0.0346
17,RRIRSRPPRLPRPRPRPSDAPRP,0.0409
18,RRIRDRPPRLPRPRPRPDMSPRP,-0.0165
19,RRIRHRPPRLPRPRPRPQCSPRP,-0.0894
20,RRIRARPPRLPRPRPRPTNSPRP,0.165
21,RRIRWRPPRLPRPRPRPWALPRP,-0.158
22,RRIRHRPPRLPRPRPRPDVQPRP,0.0591
23,RRIRMRPPRLPRPRPRPTKNPRP,1.35
24,RRIRRRPPRLPRPRPRPNKHPRP,0.117
25,RRIRMRPPRLPRPRPRPWFRPRP,-0.305

row,Sequence,shrunken log2 fold change
1,RRIRGRPPRLPRPRPRPQFDPRP,0.61
2,RRIRYRPPRLPRPRPRPPEHPRP,-0.0551
3,RRIRPRPPRLPRPRPRPWEHPRP,-0.0525
4,RRIRTRPPRLPRPRPRPTWIPRP,-0.0425
5,RRIRCRPPRLPRPRPRPLECPRP,-0.354
6,RRIRTRPPRLPRPRPRPLAYPRP,-0.982
7,RRIRLRPPRLPRPRPRPLFMPRP,-0.546
8,RRIRNRPPRLPRPRPRPQMGPRP,0.102
9,RRIRHRPPRLPRPRPRPINCPRP,0.00172
10,RRIRVRPPRLPRPRPRPHQVPRP,-0.111
11,RRIRYRPPRLPRPRPRPSGSPRP,-0.0607
12,RRIRRRPPRLPRPRPRPFLLPRP,0.0441
13,RRIRKRPPRLPRPRPRPPDDPRP,1.99
14,RRIRHRPPRLPRPRPRPGVTPRP,0.00739
15,RRIRGRPPRLPRPRPRPNPRPRP,0.684
16,RRIRYRPPRLPRPRPRPFMGPRP,-0.316
17,RRIRRRPPRLPRPRPRPHMIPRP,-0.13
18,RRIRRRPPRLPRPRPRPHEFPRP,0.0543
19,RRIRPRPPRLPRPRPRPLIVPRP,-0.406
20,RRIRARPPRLPRPRPRPHQFPRP,-0.024
21,RRIRDRPPRLPRPRPRPHAGPRP,0.0575
22,RRIRRRPPRLPRPRPRPMGTPRP,0.241
23,RRIRQRPPRLPRPRPRPPQYPRP,0.198
24,RRIRVRPPRLPRPRPRPKPWPRP,0.376
25,RRIRNRPPRLPRPRPRPAMVPRP,-0.0286

row,Sequence,shrunken log2 fold change
1,RRIRVRPPRLPRPRPRPKHYPRP,-0.459
2,RRIRERPPRLPRPRPRPVENPRP,-0.0218
3,RRIRHRPPRLPRPRPRPIQAPRP,-0.0107
4,RRIRARPPRLPRPRPRPPWWPRP,1.03
5,RRIRLRPPRLPRPRPRPLRAPRP,0.709
6,RRIRQRPPRLPRPRPRPDPEPRP,-0.202
7,RRIRYRPPRLPRPRPRPGCGPRP,-0.0402
8,RRIRRRPPRLPRPRPRPVVKPRP,-0.0155
9,RRIRRRPPRLPRPRPRPACKPRP,0.163
10,RRIRDRPPRLPRPRPRPHETPRP,-0.0736
11,RRIRVRPPRLPRPRPRPISAPRP,1.18
12,RRIRARPPRLPRPRPRPVHRPRP,-0.0852
13,RRIRWRPPRLPRPRPRPHFMPRP,-0.398
14,RRIRSRPPRLPRPRPRPAHFPRP,-0.418
15,RRIRLRPPRLPRPRPRPLQLPRP,0.267
16,RRIRTRPPRLPRPRPRPAEGPRP,0.164
17,RRIRNRPPRLPRPRPRPLNSPRP,-0.162
18,RRIRWRPPRLPRPRPRPPMGPRP,0.362
19,RRIRIRPPRLPRPRPRPQQDPRP,-0.442
20,RRIRNRPPRLPRPRPRPSTFPRP,-0.276
21,RRIRGRPPRLPRPRPRPLCCPRP,0.829
22,RRIRKRPPRLPRPRPRPGQEPRP,0.053
23,RRIRVRPPRLPRPRPRPWPGPRP,0.101
24,RRIRYRPPRLPRPRPRPPHHPRP,-0.668
25,RRIRNRPPRLPRPRPRPPEYPRP,-0.932

row,Sequence,shrunken log2 fold change
1,RRIRTRPPRLPRPRPRPPTGPRP,0.158
2,RRIRVRPPRLPRPRPRPFVPPRP,-0.0478
3,RRIRLRPPRLPRPRPRPKIKPRP,-0.36
4,RRIRFRPPRLPRPRPRPSSCPRP,-0.183
5,RRIRKRPPRLPRPRPRPLQTPRP,0.182
6,RRIRNRPPRLPRPRPRPNRCPRP,-0.0238
7,RRIRRRPPRLPRPRPRPHMKPRP,-0.654
8,RRIRTRPPRLPRPRPRPSEKPRP,-0.0354
9,RRIRCRPPRLPRPRPRPKACPRP,0.0182
10,RRIRNRPPRLPRPRPRPVMQPRP,-0.187
11,RRIRKRPPRLPRPRPRPGISPRP,0.249
12,RRIRWRPPRLPRPRPRPDEWPRP,0.253
13,RRIRDRPPRLPRPRPRPHDKPRP,0.0278
14,RRIRDRPPRLPRPRPRPGASPRP,1.08
15,RRIRHRPPRLPRPRPRPKKCPRP,-0.225
16,RRIRDRPPRLPRPRPRPMGYPRP,-0.115
17,RRIRVRPPRLPRPRPRPKICPRP,-0.0576
18,RRIRIRPPRLPRPRPRPGMEPRP,-0.375
19,RRIRPRPPRLPRPRPRPMWYPRP,-0.111
20,RRIRERPPRLPRPRPRPQYNPRP,-0.927
21,RRIRIRPPRLPRPRPRPSCWPRP,-0.322
22,RRIRKRPPRLPRPRPRPVDVPRP,0.116
23,RRIRFRPPRLPRPRPRPPSPPRP,0.688
24,RRIRARPPRLPRPRPRPYYPPRP,-0.349
25,RRIRTRPPRLPRPRPRPLQGPRP,0.12

row,Sequence,shrunken log2 fold change
1,RRIRGRPPRLPRPRPRPLTVPRP,0.48
2,RRIRCRPPRLPRPRPRPRSHPRP,-0.00365
3,RRIRVRPPRLPRPRPRPPKMPRP,-0.0776
4,RRIRWRPPRLPRPRPRPYNAPRP,-0.307
5,RRIRYRPPRLPRPRPRPQMHPRP,-0.748
6,RRIRQRPPRLPRPRPRPKCHPRP,-0.0268
7,RRIRPRPPRLPRPRPRPDGHPRP,0.0433
8,RRIRLRPPRLPRPRPRPMKRPRP,-0.0358
9,RRIRIRPPRLPRPRPRPNNDPRP,-0.967
10,RRIRARPPRLPRPRPRPWDRPRP,0.0339
11,RRIRGRPPRLPRPRPRPFAWPRP,0.573
12,RRIRLRPPRLPRPRPRPHGQPRP,0.0101
13,RRIRTRPPRLPRPRPRPDEAPRP,-0.0661
14,RRIRCRPPRLPRPRPRPTCRPRP,0.211
15,RRIRSRPPRLPRPRPRPNQWPRP,0.0342
16,RRIRTRPPRLPRPRPRPCYGPRP,-0.146
17,RRIRCRPPRLPRPRPRPNNFPRP,-0.493
18,RRIRNRPPRLPRPRPRPCFCPRP,-0.337
19,RRIRTRPPRLPRPRPRPRNQPRP,-0.139
20,RRIRIRPPRLPRPRPRPQGLPRP,0.0413
21,RRIRRRPPRLPRPRPRPWPQPRP,0.101
22,RRIRLRPPRLPRPRPRPRAQPRP,0.423
23,RRIRQRPPRLPRPRPRPSQAPRP,0.103
24,RRIRYRPPRLPRPRPRPGMGPRP,-0.195
25,RRIRYRPPRLPRPRPRPTTYPRP,-0.941

row,Sequence,shrunken log2 fold change
1,RRIRPRPPRLPRPRPRPRPAPRP,0.529
2,RRIRNRPPRLPRPRPRPAPYPRP,0.0296
3,RRIRSRPPRLPRPRPRPMSLPRP,0.226
4,RRIRKRPPRLPRPRPRPAWQPRP,0.714
5,RRIRERPPRLPRPRPRPMGRPRP,0.0998
6,RRIRDRPPRLPRPRPRPCPKPRP,-0.048
7,RRIRRRPPRLPRPRPRPMESPRP,-0.00992
8,RRIRERPPRLPRPRPRPYPKPRP,-0.405
9,RRIRDRPPRLPRPRPRPEEIPRP,-0.0062
10,RRIRARPPRLPRPRPRPAICPRP,0.252
11,RRIRPRPPRLPRPRPRPCSMPRP,-0.564
12,RRIRRRPPRLPRPRPRPEEEPRP,0.855
13,RRIRQRPPRLPRPRPRPIKGPRP,-0.0145
14,RRIRGRPPRLPRPRPRPVDKPRP,0.319
15,RRIRFRPPRLPRPRPRPGQGPRP,0.249
16,RRIRIRPPRLPRPRPRPNHGPRP,-0.413
17,RRIRSRPPRLPRPRPRPHSHPRP,-0.282
18,RRIRQRPPRLPRPRPRPMWNPRP,-0.123
19,RRIRPRPPRLPRPRPRPLIGPRP,0.009
20,RRIRWRPPRLPRPRPRPEPLPRP,0.417
21,RRIRCRPPRLPRPRPRPVDMPRP,-0.247
22,RRIRQRPPRLPRPRPRPPKCPRP,-0.37
23,RRIRYRPPRLPRPRPRPTGRPRP,0.0692
24,RRIRLRPPRLPRPRPRPVKSPRP,-0.075
25,RRIRGRPPRLPRPRPRPLIEPRP,0.801
